# In the DeepSol protein solubility set:
# Assay: soluble on expression in E. coli; label from the status in PepcDB or PDB records
row,Sequence,soluble on expression in E. coli
1,MGSDKIHHHHHHMTEVIRDIPFLATDRVEALLDIERHLIVEQSTIERWFRGQWQRTPPPFYASVDLRNAGFKLAPVDTNLFSAGFNNLNPEFSALYVSAIQHYLNQYHPGLERVLLIPENHTRNLFYLESVARLRELLELAGLDVRVGSLILEDRTVYDLPSGGQLLLEPLCRDDGRLSTRGFDAQLILLNNDLSGGVPEILAGLEQPILPPLAAGWRNRRKSQHFTHYRAVAQELAEVIGIDPWLIDPVFRRCQGIDFMRSEGRECLVANVDAVLEITRERYAHYGIHQRPFVIVKADAGTYGMGIMTAYSGEEFLDLNRKERTRMAKSKEGLPVSDVFIQEGVYTFEQTAQEAVAEPVVYMIGQQVLGGFYRVHTERGRDENLNAPGAHFEPMAFGQTCVLPCRKSPPDAPANRYYAYGVIARLTLVAAAREMADWRRQGTLETGQ,not soluble
2,MKDFWTWERLSFHMVLAYNDDRSFLINTGMPLDLTLRNQEMKKFAGDRAIFRSEDSIEMLRKAGFTPDDIDYVALTPVQDYTIGRLNEFRKSKIFIFRDGWIKDIAAPAYAYFHNRDLFIPKNIFDFVYGEGWKNIIFYDGETELVPGIRAIPVGCHHRSSVAFAINAKDGTYVFTDASFKAENVRNRIPIGIAENIYECLSAYEKIEKIGKLLPAYDPAIDDLYIKLEHHHHHH,soluble
3,MSANSKDRNQSNQDAKRQQQNFPKKISEGEADLYLDQYNFTTTAAIVSSVDRKIFVLLRDGRMLFGVLRTFDQYANLILQDCVERIYFSEENKYAEEDRGIFMIRGENVVMLGEVDIDKEDQPLEAMERIPFKEAWLTKQKNDEKRFKEETHKGKKMARHGIVYDFHKSDMY,not soluble
4,MSLNDSRLLPVGSSPLEVAAARACAEIERTPVNIRALWNPDTCPENLLPWLAWAFSVDRWDENWPEGTKRAVIRDAYFIHCHKGTIGAIRRVVEPLGYVINVTEWWESSDPPGTFRLDIGVLESGITEEMYFEMERLIADAKPASRHLTGLNIVQDIPGYLYTGGVSCDGDIITVYPGEGHHHHHH,not soluble
5,MISLIAALAVDRVIGMENAMPWNLPADLAWFKRNTLDKPVIMGRHTWESIGRPLPGRKNIILSSQPGTDDRVTWVKSVDEAIAACGDVPEIMVIGGGRVYEQFLPKAQKLYLTHIDAEVEGDTHFPDYEPDDWESVFSEFHDADAQNSHSYCFEILERR,soluble
6,MFSPLGQFKHIVCPFLRTGRKCQSRNCFFSHDFQNSTKISPPYSENVEGYPKVKIEKSLPYKYDNCKLSICVPIVTTCIPYHSVENLNFNIRQNISTTLNLEKTNDSIKETKNENFRMDVLETYKCKQLNHQTTHLPTNTVLKKRSLFNDAISIVPNKKKQLVSAISTNSDSQGASSNIIPTPKYDSNSPAGHELRKRMTHLLYESYKDLGYSNAESSMLALLDEKNICETANSKMIYSSSCKSKILSLKKAPKKNEIQGSTPDEKLESLVHSEEELILWGYNIGDVAPVNPPDELRECDRCGTRFADPRGPCTYHWGKLFREKQGGEKIRTYTCCGVKEGDSSGCIIEDNHVFKYRHLPYLASVHPFSYLPDSTNSKQLSHCALDCELCYTTNGMELARLTVVAKESIIMDVFIKPKGKILSLNTRFSGIHDAKELESGITMDQMYIKIKELGMNKNTILIGHGLENDLNAMRLIHKRVIDTALLFTHARGPPFRYSLKYLTKKYLGTTIQTSTHDSEEDAVSALQLVFYKTKSNESQN,soluble
7,MGSDKIHHHHHHMIDLHCHTTASDGVVTPSNVIRQASRKGIAVLAIADHDTVNGLDEAAGAAEKEGICLIPAIELSVAFPKGDFHLLGYGIQYKNENFRNKLAQLRTIREERIFRIIERLKRYGLNLTHEDLQNESQGDAPGKAHVARVLVRKRYASNFNVACKTYLNEGMPGYVPKEKLSLESACELINNAGGLSVLAHPKSLNGENHEEYERIIQMCVSHGLAGIEVYASLHDNQDVRLFLELARRHRLIATGGSDFHGDNGACLGYYGHRRPVPESCSQPLLQKISQNKT,not soluble
8,MTVTFTLPLDCSFNNLWTCHAEGIERDLGKVGGGAASSGKTSTGVSRTVTRGVNLSGADFSEQDLSGVSFQQSLLRETDFHGAKLVSASFFGAELSYANLEDADLTEANLELANLRSAKLKNAVLRRAYFSGNTRLENVDIDGADFSEVILRKDQKKYLCNIANGTNSHTGVETKTSLGCNSS,not soluble
9,MSLTKPTIALTELVEKGADADLLKQMIQFVAQRMMEFDVEGLCGAGFDVKSPDRTNSRNGYRDRLWQTRAGDVDLKIPKLRQGNYFPGFLEPRRTAEKAMAAVIQEAYIQGVSTRSVDELVKAMGMTGISKSQVSRLAGEIDERVHAFLDRPLEGDWPYLWIDATYVKVREAGRIVSVVVIIAVAVNTDGGREVLGMRVGPSEAEPFWTDFLRSLMRRGLRGVKLVISDAHEGLKAAASKVFNATWQRCRVHFMRNAMAHVGKGQRTMVAALLRTVFAQDSRAECHQQWRLVADQLREKYPKIATLMDGCEDEVLAHMAFPKAHRQQLHSTNPLERLNAEIKRRTDVVGIFPNDPAITRLVGAMLLEQNDEWCLQRRYMQLEAFEAVSDNPQAKLSAVINEGHHHHHH,soluble
10,MNLIDNHIHTNFSSDGKDSMEDTIKKAISIGVRYLTFTDHLEHDEDRGFCINYNDYVPVFNKFKEKYKKDIELLLGVEVGYRKHLKNEIEEIINSNPFDFVLCSTHTIDNVPVPSKAYFKGLSKEDAYYKYFNSILETNREFGDYNIYGHLDYISRYGIYSDNRVIYNDFKDVIDEVLKSIINNGSGIELNTSGYRYGLNAIHPNEDILKRYKELGGFIVTVGSDSHRVEDICKDFDVAYDMLKYLDFKYVSLFKERETYFVNIEKVKSNNIA,not soluble
11,MGSDKIHHHHHHMDRQKTSQTVPAGDADDGDDTSVDEKRSPLILTEQVWRKRPAYSSPLPDDKSITLSRWTIPEQPTPVEFRSDGNEDSHIITYSLRQSSVDFWMEGQRVSNGRVTPHAVLMTGPGQPGRAVFYKVFDSIRMYLPQALLAECHEGAYGRPPNQDIVLSHPHFVADQKVRHLVEALVLVDQTDGAMGRIYVDSIGLAIGARLIALHGERRNPVDRSQGLSAWRLRHVIEYIDAHLSSPIGLAELANVAGLSRMHFARRFREVTGQTPHQYVLRCRIMRAQQLLCSPALSVTDIASALAFKTTAHFSTVFRHIVGESPTQWRKRLR,not soluble
12,MENDMKSLSAAAQACVKKMRDAKVNEACIRTFIAQHVMVSKGETGSIPDSAIMPVDSLDALDSLTIECDNAVLQSTVVLKLNGGLGTGMGLCDAKTLLEVKDGKTFLDFTALQVQYLRQHCSEHLRFMLMDSFNTSASTKSFLKARYPWLYQVFDSEVELMQNQVPKILQDTLEPAAWAENPAYEWAPPGHGDIYTALYGSGKLQELVEQGYRYMFVSNGDNLGATIDKRVLAYMEKEKIDFLMEVCRRTESDKKGGHLARQTVYVKGKDGQPDAEKRVLLLRESAQCPKADMESFQDINKYSFFNTNNLWIRLPVLLETMQEHGGTLPLPVIRNEKTVDSSNSASPKVYQLETAMGAAIAMFESASAIVVPRSRFAPVKTCADLLALRSDAYVVTDDFRLVLDDRCHGHPPVVDLDSAHYKMMNGFEKLVQHGVPSLVECKRVTVKGLVQFGAGNVLTGTVTIENTDSASAFVIPDGAKLNDTTASPQQSTNKMRPLEHHHHHH,soluble
13,MAHHHHHHMKRIVAPRRWSAINRVEHPPLMPKQLLQSVCGGLRWLESKSLAEFLAKRAIEEGFPCTKKQQRIFDARPPSSRPALRKSRLHKKCPARRSGGDVQRTEGSLEAPRTTGASGALVSSGAALALNSSAFDALVPLAKRKRLVSYDVLDCTFGSGFHTGVVLENGRPYTRVVAMDCDVEATVSAREIVDEFGADRFRFYARPMSEAKAMFGERSFDAVMIDPGPSSTQLENPERGFLLNDESDHALDMRYGPTHGLGALEYLNTVPQHALSGALASYELLTPQQSMKLARAIRQRRPFDGAQRVLEAVEEAGNELPEEGWGTQGSRRKTSMSWNFMTSLRCIVNHERHELSEALQNALLLLRTDGRLVVFSRLPWEEKLISTTISQHPHALLSYSEAIPIEDVQEHGHSRHTKMWIVTRTQGSSYVLKNSQTLTGEAVQESSMRWMSGLFAGQTFGFPANNFTFENKDGKDWAAVRRNKNSPPFDSDDDPRG,not soluble
14,QIQLTQSPSSLSASVGDRVTITCSASSSVNSSALFWYQQKPGKAPKPWIYLTSNLASGVPSRFSGSGSGTDYTLTISSLQPEDFATYYCQQISGNPWTFGQGTKVEIKRADAAPTVSIFPPSSEQLTSGGASVVCFLNNFYPKDINVKWKIDGSERQNGVLNSWTDQDSKDSTYSMSSTLTLTKDEYERHNSYTCEATHKTSTSPIVKSFNRNEC,soluble
